Reference: patent US20090094709

Tested on: AMPK, active (upstate) protein

PP2Cε protein (in vitro assay) was tested, and the “dephosphorylation of AMPK” value was “the dephosphorylation of AMPK with PP2Cε occurs concentration-dependently”.
